For one assay, the target named is K48-linked diubiquitin (UniProt P0CG48). Nature of the assay: ITC. As to conditions: domain or fragment.
The target in another assay is K63-linked diubiquitin (UniProt P0CG48). Nature of the assay: ITC. As to conditions: domain or fragment.

human UBAP1 SOUBA domain (389-502), wild-type, sequence (Q9NZ09 389-502): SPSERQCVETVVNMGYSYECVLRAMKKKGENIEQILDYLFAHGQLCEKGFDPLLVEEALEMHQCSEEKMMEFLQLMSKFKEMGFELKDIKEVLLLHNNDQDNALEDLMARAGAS

As a reminder, the Kd is the concentration at which binding is half-saturated. Read a high Kd as lower affinity. As to “human UBAP1 SOUBA domain (389-502), wild-type (from UniProt Q9NZ09 389-502)”, the values for the Kd with K48-linked diubiquitin and in the assay with K63-linked diubiquitin were 65 µM and 41 µM, respectively.

The values above are taken from paper PMC3314968.
